Here are results for one molecule from publication PMC7835374 (2021).

The target of the assay is recombinant full-length hemagglutinin H6 (A/Taiwan/2/2013) (influenza A virus H6N1 (A/Taiwan/2/2013)). Nature of the assay: BLI. A general note: BLI is a label-free optical method that tracks binding on a fibre tip over time.

B1: 3I14^D93N IgG1 (antibody, V domains shown)
VH: QVQLLESGGGVVQPGRSLRLSCAASGFTFSNYGMHWVRQAPGKGLEWVAIISFDGSKKYYANSVKGRSTISRDNSKNTLSLQMNSLGPEDTALYYCAKLPSPYYFDSRFVWVAASAFHFWGQGILVTVSS
VL: LTQPPSASGTPGQRVTISCSGSSSNIGGNTVHWFQQLPGTAPKLLIYTNSLRPSGVPDRFSGSKSGTSASLAISGLQSEDEADYYCAAWDNSLNGQVFGGGTKLTVL
In general, Kd refers to the constant that tells how readily two partners part at equilibrium. In the case of B1, the Kd is 0.4 nM.
